This test addresses Rabenosyn-5 (as printed for the GST pull-down of Figure 7). As to the kind of experiment: pull-down; GST-effector fusion protein on glutathione-Sepharose beads incubated with clarified lysate of transfected cells for 1 h at 4 °C; lysis buffer 20 mM Hepes pH 7.4, 100 mM NaCl, 5 mM MgCl2, 0.1% NP40, 10% glycerol, 1 mM DTT; washed 3 times with PBS-T (1% Triton X-100); immunoblot with anti-Myc or anti-Rab antibody, bands quantified with LI-COR Odyssey.

With “Rab22 (from UniProt Q9UL26 1-194) (natural protein)”, the fold binding to Rabenosyn-5 relative to EEA1 fell in the range of 2 to 3 fold.
